According to patent publication US20140348865A1, “[…] ON AN HIV-1 V1V2 SITE-OF-VULNERABILITY” (The United States of America, as represented by the …, priority 2011, published 2014):

Columns and labels:
[1] = target: 0260.v5.c36
[2] = target: 3301_V1_C24
[3] = target: 3589_V1_C4
[4] = target: 3718.v3.c11
[5] = target: 620345.c1
[6] = target: 6545_V4_C1
[7] = target: C4118.09
[8] = target: CNE3
[9] = target: Env of HIV-1 strain 0439 (pseudovirus) (HIV-1)
[10] = target: KER2008.12
[11] = target: KNH1209.18
[12] = target: Q23.17
[13] = target: Q259.17
[14] = target: R2184.c4
[15] = target: UG037.8
[16] = target: 89.6.DG (HIV-1)
[17] = target: AC10.29 (HIV-1)
[18] = target: ADA.DG (HIV-1)
[19] = target: BL01.DG (HIV-1)
[20] = target: BR07.DG (HIV-1)
[21] = target: BX08_16 (HIV-1)
[22] = target: BaL.26 (HIV-1)
[23] = target: Bal.01 (HIV-1)
[24] = target: CAAN.A2 (HIV-1)
[25] = target: CH038.12 (HIV-1)
[26] = target: CH070.1 (HIV-1)
[27] = target: CNE10 (HIV-1)
[28] = target: CNE12 (HIV-1)
[29] = target: CNE14 (HIV-1)
[30] = target: CNE57 (HIV-1)
[31] = target: DJ263.8 (HIV-1)
[32] = target: Env of HIV-1 strain 7165.18 (pseudovirus) (HIV-1)
[33] = target: Env of HIV-1 strain BG 1168 (pseudovirus) (HIV-1)
[34] = target: Env of HIV-1 strain CNE4 (pseudovirus) (HIV-1)
[35] = target: Env of HIV-1 strain JRFL (pseudovirus) (HIV-1)
[36] = target: Env of HIV-1 strain QH0515 (pseudovirus) (HIV-1)
[37] = target: Env of HIV-1 strain RHPA (pseudovirus) (HIV-1)
[38] = target: Env of HIV-1 strain T251-18 (pseudovirus) (HIV-1)
[39] = target: HO86.8 (HIV-1)
[40] = target: HT593.1 (HIV-1)
[41] = target: HXB2.DG (HIV-1)
[42] = target: JRCSF.JB (HIV-1)
[43] = target: MN.3 (HIV-1)
[44] = target: PVO.04 (HIV-1)
[45] = target: QH0692.42 (HIV-1)
[46] = target: REJO.67 (HIV-1)
[47] = target: SC422.8 (HIV-1)
[48] = target: SF162.LS (HIV-1)
[49] = target: SS1196.01 (HIV-1)
[50] = target: T250-4 (HIV-1)
[51] = target: T253-11 (HIV-1)
[52] = target: T255-34 (HIV-1)
[53] = target: T257-31 (HIV-1)
[54] = target: T266-60 (HIV-1)
[55] = target: T278-50 (HIV-1)
[56] = target: T280-5 (HIV-1)
[57] = target: T33-7 (HIV-1)
[58] = target: THRO.18 (HIV-1)
[59] = target: TRJO.58 (HIV-1)
[60] = target: TRO.11 (HIV-1)
[61] = target: WITO.33 (HIV-1)
[62] = target: YU2.DG (HIV-1)
[63] = target: 1FD6 CAP45 scaffold N143D/N147D/N192D; test: ELISA on His-captured supernatant
[64] = target: epitope-scaffold 2ZJR_B; test: ELISA, antibody dilution series on the scaffold

Work on monoclonal antibody PG9 yielded a neutralization IC50 [1] of 2.18 µg/mL, a neutralization IC50 [2] of 0.281 µg/mL and a neutralization IC50 [3] of 0.025 µg/mL. The neutralization IC50 [4] was 0.05 µg/mL, the neutralization IC50 [5] was 0.393 µg/mL and the neutralization IC50 [6] was 0.095 µg/mL. For the same substance, the neutralization IC50 [7] was 0.037 µg/mL, the neutralization IC50 [8] was 0.079 µg/mL and the neutralization IC50 [9] was greater than 50 µg/mL. It also gave a neutralization IC50 [10] of 0.017 µg/mL, a neutralization IC50 [11] of 0.367 µg/mL and a neutralization IC50 [12] of 0.007 µg/mL. The neutralization IC50 [13] was 0.045 µg/mL, the neutralization IC50 [14] was 0.2 µg/mL and the neutralization IC50 [15] was 0.021 µg/mL. The neutralization IC80 [16] was greater than 50 µg/mL, the neutralization IC80 [17] was 0.306 µg/mL and the neutralization IC80 [18] was greater than 50 µg/mL. It also gave a neutralization IC80 [19] greater than 50 µg/mL, a neutralization IC80 [20] greater than 50 µg/mL and a neutralization IC80 [21] of 0.273 µg/mL. The neutralization IC80 [22] was 0.365 µg/mL, the neutralization IC80 [23] was 1.52 µg/mL and the neutralization IC80 [24] was greater than 50 µg/mL. It also gave a neutralization IC80 [25] greater than 50 µg/mL, a neutralization IC80 [26] of 0.024 µg/mL and a neutralization IC80 [27] of 1.61 µg/mL. The neutralization IC80 [28] was greater than 50 µg/mL, the neutralization IC80 [29] was greater than 50 µg/mL and the neutralization IC80 [30] was greater than 50 µg/mL. For the same substance, the neutralization IC80 [31] was 0.733 µg/mL, the neutralization IC80 [32] was greater than 50 µg/mL and the neutralization IC80 [33] was greater than 50 µg/mL. The neutralization IC80 [34] was greater than 50 µg/mL, the neutralization IC80 [35] was greater than 50 µg/mL and the neutralization IC80 [36] was greater than 50 µg/mL. The neutralization IC80 [37] was greater than 50 µg/mL, the neutralization IC80 [38] was greater than 50 µg/mL and the neutralization IC80 [39] was 0.125 µg/mL. The neutralization IC80 [40] was 5.41 µg/mL, the neutralization IC80 [41] was 10.2 µg/mL and the neutralization IC80 [42] was 0.009 µg/mL. It also gave a neutralization IC80 [43] greater than 50 µg/mL, a neutralization IC80 [44] of 37.1 µg/mL and a neutralization IC80 [45] greater than 50 µg/mL. For the same substance, the neutralization IC80 [46] was 0.08 µg/mL, the neutralization IC80 [47] was 38.6 µg/mL and the neutralization IC80 [48] was greater than 50 µg/mL. For the same substance, the neutralization IC80 [49] was 3.08 µg/mL, the neutralization IC80 [50] was 0.001 µg/mL and the neutralization IC80 [51] was 1.72 µg/mL. For the same substance, the neutralization IC80 [52] was 0.114 µg/mL, the neutralization IC80 [53] was 0.075 µg/mL and the neutralization IC80 [54] was greater than 50 µg/mL. It also gave a neutralization IC80 [55] of 6.06 µg/mL, a neutralization IC80 [56] of 1.94 µg/mL and a neutralization IC80 [57] of 0.087 µg/mL. It also gave a neutralization IC80 [58] greater than 50 µg/mL, a neutralization IC80 [59] of 3.22 µg/mL and a neutralization IC80 [60] greater than 50 µg/mL. The neutralization IC80 [61] was 0.03 µg/mL, the neutralization IC80 [62] was greater than 50 µg/mL and the EC50 [63] was 0.1 µg/mL. For the same substance, the EC50 (read off the curve) [64] was 0.1 µg/mL.
monoclonal antibody PG16 showed a neutralization IC50 [1] of 2.1 µg/mL, a neutralization IC50 [2] of less than 0.023 µg/mL and a neutralization IC50 [3] of 0.728 µg/mL. It also gave a neutralization IC50 [4] of 0.019 µg/mL, a neutralization IC50 [5] greater than 50 µg/mL and a neutralization IC50 [6] of 0.068 µg/mL. It also gave a neutralization IC50 [7] of 0.021 µg/mL, a neutralization IC50 [8] of 0.173 µg/mL and a neutralization IC50 [9] greater than 50 µg/mL. For the same substance, the neutralization IC50 [10] was 0.006 µg/mL, the neutralization IC50 [11] was 0.678 µg/mL and the neutralization IC50 [12] was 0.002 µg/mL. The neutralization IC50 [13] was 0.028 µg/mL, the neutralization IC50 [14] was 0.28 µg/mL and the neutralization IC50 [15] was 0.001 µg/mL. The neutralization IC80 [16] was greater than 50 µg/mL, the neutralization IC80 [17] was 0.088 µg/mL and the neutralization IC80 [18] was 0.458 µg/mL. It also gave a neutralization IC80 [19] greater than 50 µg/mL, a neutralization IC80 [20] greater than 50 µg/mL and a neutralization IC80 [21] of 38.8 µg/mL. For the same substance, the neutralization IC80 [22] was greater than 50 µg/mL, the neutralization IC80 [23] was greater than 50 µg/mL and the neutralization IC80 [24] was greater than 50 µg/mL. For the same substance, the neutralization IC80 [25] was greater than 50 µg/mL, the neutralization IC80 [26] was 0.013 µg/mL and the neutralization IC80 [27] was greater than 50 µg/mL. It also gave a neutralization IC80 [28] greater than 50 µg/mL, a neutralization IC80 [29] greater than 50 µg/mL and a neutralization IC80 [30] greater than 50 µg/mL. It also gave a neutralization IC80 [31] of 1.11 µg/mL, a neutralization IC80 [32] greater than 50 µg/mL and a neutralization IC80 [33] greater than 50 µg/mL. The neutralization IC80 [34] was greater than 50 µg/mL, the neutralization IC80 [35] was greater than 50 µg/mL and the neutralization IC80 [36] was greater than 50 µg/mL. The neutralization IC80 [37] was greater than 50 µg/mL, the neutralization IC80 [38] was greater than 50 µg/mL and the neutralization IC80 [39] was 0.02 µg/mL. For the same substance, the neutralization IC80 [40] was 13.7 µg/mL, the neutralization IC80 [41] was greater than 50 µg/mL and the neutralization IC80 [42] was 0.015 µg/mL. The neutralization IC80 [43] was greater than 50 µg/mL, the neutralization IC80 [44] was greater than 50 µg/mL and the neutralization IC80 [45] was greater than 50 µg/mL. The neutralization IC80 [46] was 0.4 µg/mL, the neutralization IC80 [47] was greater than 50 µg/mL and the neutralization IC80 [48] was greater than 50 µg/mL. The neutralization IC80 [49] was 2.9 µg/mL, the neutralization IC80 [50] was 0.001 µg/mL and the neutralization IC80 [51] was greater than 50 µg/mL. For the same substance, the neutralization IC80 [52] was 0.079 µg/mL, the neutralization IC80 [53] was 0.021 µg/mL and the neutralization IC80 [54] was greater than 50 µg/mL. The neutralization IC80 [55] was greater than 50 µg/mL, the neutralization IC80 [56] was 4.53 µg/mL and the neutralization IC80 [57] was 0.279 µg/mL. It also gave a neutralization IC80 [58] greater than 50 µg/mL, a neutralization IC80 [59] of 13.9 µg/mL and a neutralization IC80 [60] greater than 50 µg/mL. For the same substance, the neutralization IC80 [61] was less than 0.023 µg/mL, the neutralization IC80 [62] was greater than 50 µg/mL and the EC50 [63] was 15.1 µg/mL. For the same substance, the EC50 (read off the curve) [64] was 1 µg/mL.
